We go through 14 molecules from patent US20120220540A1, “SYNBODIES TO AKT1” (ARIZONA BOARD OF REGENTS FOR AND ON BEHALF OF ARIZONA STATE …, priority 2009, published 2012).

One may read the Kd as a measure of binding affinity in units of concentration. As usually defined, the koff is the rate constant with which the complex falls apart.

Square brackets hold non-standard residues; d marks the D form. Ends that are not written are not given here. * marks the point of attachment. Biotin = O=C1N[C@H]2[C@H](CS[C@H]2CCCCC(=O)*)N1; Oct = octanoic acid spacer; oct = octanoic acid spacer; StBu = CC(C)(C)S*

The target of test [1] is AKT1 (Homo sapiens, UniProt P31749). Put plainly: KD of synbody variants (Tables 2 and 4). It is filed as binding. Also noted: key to KD (nM): n.b. = no binding. Here is the method: Selection of screening of amino acid variants has been described above. Variants including modifications of conjugation chemistry, linker, spacers or adjunct moieties can be screened for retention of binding to AKT1. In some methods, either the AKT1 or the synbody is immobilized. Optionally binding of a variant is tested in competition with the lead AKT1 synbody discussed above. In one format, AKT1 is immobilized to a support and synbody variants are tested for binding by surface plasmon resonance.
AKT1 (Homo sapiens, UniProt P31749), sequence (P31749 whole entry): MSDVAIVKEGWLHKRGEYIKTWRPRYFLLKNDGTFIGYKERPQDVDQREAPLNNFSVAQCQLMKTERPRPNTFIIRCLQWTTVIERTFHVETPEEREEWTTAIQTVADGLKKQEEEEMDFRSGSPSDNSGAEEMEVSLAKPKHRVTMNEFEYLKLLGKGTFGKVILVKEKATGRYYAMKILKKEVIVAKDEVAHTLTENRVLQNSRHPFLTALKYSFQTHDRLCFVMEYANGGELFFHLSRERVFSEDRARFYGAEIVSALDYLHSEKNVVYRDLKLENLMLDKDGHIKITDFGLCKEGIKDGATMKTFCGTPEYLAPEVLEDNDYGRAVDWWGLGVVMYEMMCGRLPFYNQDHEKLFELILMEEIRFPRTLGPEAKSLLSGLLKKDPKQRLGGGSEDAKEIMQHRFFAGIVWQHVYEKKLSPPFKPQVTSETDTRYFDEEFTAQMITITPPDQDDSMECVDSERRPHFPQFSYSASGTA
The following synbodies have the same peptides as the lead synbody and are synthesized off of a lysine core but include the addition of different functional groups synthesized between the C-terminus of the peptide and the amine groups of the lysine scaffold (Table 2). Synbodies were conjugated with either a C-terminal cysteine protected against disulfide formation using a sulfo-tert-butyl group, or with different biotin-conjugated lysines where the spacer between the lysine and the backbone varied. For example, in synbody 5 the biotin was attached to the amino group of the side chain, synbody 6 used a caproic acid spacer, while synbody 7 used an eleven-unit polyethylene glycol spacer.
The following mutant forms of the lead peptide have been made in which either one or more amino acids are substituted or the orientation of the peptides on the linker is reversed (Table 4).

The target in test [2] is AKT3 (Homo sapiens, UniProt Q9Y243). Kind of test: Immunoprecipitation of purified AKT3 from cell lysate with synbody (Western blot). It is filed as binding. The following applies: immunoprecipitate of purified 250 ng AKT3 from 500 mg of cell lysate. The protocol: (§1) The synbody was tested for binding to AKT1 and in some experiments, AKT2 and AKT3.
AKT3 (Homo sapiens, UniProt Q9Y243), sequence (Q9Y243 whole entry): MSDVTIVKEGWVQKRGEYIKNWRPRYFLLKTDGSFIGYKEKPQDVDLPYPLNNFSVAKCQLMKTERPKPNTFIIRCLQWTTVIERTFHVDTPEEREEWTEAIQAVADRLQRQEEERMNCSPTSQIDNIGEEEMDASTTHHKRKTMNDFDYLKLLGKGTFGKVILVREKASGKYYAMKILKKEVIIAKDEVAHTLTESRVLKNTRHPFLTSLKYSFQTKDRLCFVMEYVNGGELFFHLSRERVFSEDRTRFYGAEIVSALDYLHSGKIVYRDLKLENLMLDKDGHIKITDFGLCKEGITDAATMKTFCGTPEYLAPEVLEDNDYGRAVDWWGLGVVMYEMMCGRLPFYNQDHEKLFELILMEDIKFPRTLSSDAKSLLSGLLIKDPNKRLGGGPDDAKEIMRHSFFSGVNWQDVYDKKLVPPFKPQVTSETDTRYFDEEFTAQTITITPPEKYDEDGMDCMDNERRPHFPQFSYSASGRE
A general note: Immunoblotting shows a protein as a band on a membrane.

For test [3], the target named is AKT2 (Homo sapiens, UniProt P31751). Put plainly: Immunoprecipitation of purified AKT2 from cell lysate with synbody (Western blot). It is filed as binding. The following applies: immunoprecipitate of purified 250 ng AKT2 from 500 mg of cell lysate. The protocol:
as §1

In test [4] the target is T1, AKT1 (human, UniProt P31749 1-480).
T1 construct: also called human AKT1; AKT1_HUMAN
T1 sequence (P31749 whole entry): as the sequence (P31749 whole entry) above
Put plainly: method not stated (Table 2).

The target in test [5] is T1, AKT1. Kind of test: method not stated (Table 4).
Test [6] has as its target T1, AKT1. Put plainly: SPR, 12.5 and 6.25 nM synbody injected over AKT1 surface, 1:1 kinetic fit; SPR, synbody injected over AKT1 surface, 1:1 kinetic fit. Here is the method: as §1
A general note: Surface plasmon resonance follows binding to a sensor surface in real time, without labels.

In test [7] the target is AKT3 (human, UniProt Q9Y243 1-479, limits assumed). Kind of test: immunoprecipitation of 250 ng purified AKT3 from cell lysate with the synbody, Western blot. The protocol: as §1
AKT3 (human, UniProt Q9Y243 1-479, limits assumed), sequence (Q9Y243 whole entry): as the sequence (Q9Y243 whole entry) above
In test [8] the target is T1, AKT1. Put plainly: pull-down of S35-labeled AKT1 with synbody immobilized via biotin on magnetic beads, 1:1 fit; pull-down of S35-labeled AKT1, synbody on magnetic bead via biotin. The protocol:
as §1

For test [9], the target named is AKT2 (human, UniProt P31751 1-481). Kind of test: immunoprecipitation of 250 ng purified AKT2 from cell lysate with the synbody, Western blot. The protocol: as §1
AKT2 (human, UniProt P31751 1-481), sequence (P31751 whole entry): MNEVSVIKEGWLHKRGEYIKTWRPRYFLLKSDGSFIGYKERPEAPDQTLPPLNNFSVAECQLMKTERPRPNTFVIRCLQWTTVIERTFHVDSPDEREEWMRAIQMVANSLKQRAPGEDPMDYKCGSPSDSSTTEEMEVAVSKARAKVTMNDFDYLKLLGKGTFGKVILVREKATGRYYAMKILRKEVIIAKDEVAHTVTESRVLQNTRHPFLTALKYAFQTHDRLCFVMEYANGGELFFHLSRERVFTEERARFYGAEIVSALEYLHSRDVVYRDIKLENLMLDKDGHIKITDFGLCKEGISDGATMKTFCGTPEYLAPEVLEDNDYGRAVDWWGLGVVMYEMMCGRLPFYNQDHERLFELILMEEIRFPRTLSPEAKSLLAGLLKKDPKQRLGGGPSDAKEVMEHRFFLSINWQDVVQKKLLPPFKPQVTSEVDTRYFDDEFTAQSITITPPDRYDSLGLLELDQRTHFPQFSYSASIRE
Test [10] addresses T1, AKT1. Kind of test: SPR, synbody at 12.5 and 6.25 nM injected over immobilized AKT1, 1:1 kinetic fit. The protocol:
as §1

Where [11] appears, read: Table 2, synbodies constructed from a lysine scaffold.

AKT2 (Homo sapiens, UniProt P31751), sequence (P31751 whole entry): as above

Molecule `CC[C@H](C)[C@H](NC(=O)[C@H](Cc1c[nH]cn1)NC(=O)[C@H](C)NC(=O)[C@H](Cc1c[nH]c2ccccc12)NC(=O)CNC(=O)[C@H](CCCNC(=N)N)NC(=O)[C@@H](N)Cc1ccccc1)C(=O)N[C@@H](Cc1ccccc1)C(=O)N[C@@H](Cc1ccccc1)C(=O)NCC(=O)N1CCC[C@H]1C(=O)N[C@@H](Cc1c[nH]cn1)C(=O)N[C@H](C(=O)N[C@H](C(=O)N[C@@H](Cc1ccc(O)cc1)C(=O)N[C@@H](CCCNC(=N)N)C(=O)NCC(=O)NCC(=O)N[C@@H](CO)C(=O)NCC(=O)NCCCC[C@H](NC(=O)CNC(=O)[C@H](CO)NC(=O)CNC(=O)[C@H](Cc1ccc(O)cc1)NC(=O)[C@H](CCCNC(=N)N)NC(=O)[C@H](CC(N)=O)NC(=O)[C@H](Cc1ccc(O)cc1)NC(=O)[C@H](C)NC(=O)[C@H](Cc1c[nH]cn1)NC(=O)[C@H](CCCNC(=N)N)NC(=O)[C@@H](NC(=O)[C@H](CCC(N)=O)NC(=O)[C@H](CCCNC(=N)N)NC(=O)[C@H](CCC(N)=O)NC(=O)[C@@H]1CCCN1C(=O)[C@@H](NC(=O)[C@@H](NC(=O)[C@H](CCCCN)NC(=O)[C@H](Cc1c[nH]cn1)NC(=O)[C@H](C)N)C(C)C)C(C)C)[C@@H](C)CC)C(=O)N[C@@H](CSSC(C)(C)C)C(N)=O)[C@@H](C)CC)C(C)C` [Akt26-23KC] registered a Kd at AKT1 [1] (setting [11]) of 4 nM.
For the molecule `CC[C@H](C)[C@H](NC(=O)[C@H](Cc1c[nH]cn1)NC(=O)[C@H](C)NC(=O)[C@H](Cc1c[nH]c2ccccc12)NC(=O)CNC(=O)[C@H](CCCNC(=N)N)NC(=O)[C@@H](N)Cc1ccccc1)C(=O)N[C@@H](Cc1ccccc1)C(=O)N[C@@H](Cc1ccccc1)C(=O)NCC(=O)N1CCC[C@H]1C(=O)N[C@@H](Cc1c[nH]cn1)C(=O)N[C@H](C(=O)N[C@H](C(=O)N[C@@H](Cc1ccc(O)cc1)C(=O)N[C@@H](CCCNC(=N)N)C(=O)NCC(=O)NCC(=O)N[C@@H](CO)C(=O)NCC(=O)NCCCC[C@H](NC(=O)CNC(=O)[C@H](CO)NC(=O)CNC(=O)[C@H](Cc1ccc(O)cc1)NC(=O)[C@H](CCCNC(=N)N)NC(=O)[C@H](CC(N)=O)NC(=O)[C@H](Cc1ccc(O)cc1)NC(=O)[C@H](C)NC(=O)[C@H](Cc1c[nH]cn1)NC(=O)[C@H](CCCNC(=N)N)NC(=O)[C@@H](NC(=O)[C@H](CCC(N)=O)NC(=O)[C@H](CCCNC(=N)N)NC(=O)[C@H](CCC(N)=O)NC(=O)[C@@H]1CCCN1C(=O)[C@@H](NC(=O)[C@@H](NC(=O)[C@H](CCCCN)NC(=O)[C@H](Cc1c[nH]cn1)NC(=O)[C@H](C)N)C(C)C)C(C)C)[C@@H](C)CC)C(=O)N[C@@H](CCCCNC(=O)CCCC[C@@H]1SC[C@@H]2NC(=O)N[C@@H]21)C(N)=O)[C@@H](C)CC)C(C)C` [lead synbody], the “cross-reactivity with AKT3” value on AKT3 [2] is given as “little cross-reactivity”. The “cross-reactivity with AKT2” value on AKT2 [3] is “little cross-reactivity”.
On to “AHKVVPQRQIRHAYNRYGSG(oct)KCFRGWAHIFFGPHVIYRGGSG(oct) (AHKVVPQRQIRHAYNRYGSG[oct]KCFRGWAHIFFGPHVIYRGGSG-oct; not fully specified; printed as AHKVVPQRQIRHAYNRYGSG(oct)KCFRGWAHIFFGPHVIYRGGSG(oct); numbers in words are those of the source; also: branched on Lys21 side chain (linear writing)) [Akt26-(Oct)-23(Oct)KC]”, for which the “KD (nM)” value with AKT1 [1] (setting [11]) is reported as “n.b”.
Regarding “AHKVVPQRQIRHAYNRYGSGKCFRGWAHIFFGPHVIYRGGSG(oct) (AHKVVPQRQIRHAYNRYGSGKCFRGWAHIFFGPHVIYRGGSG-oct; not fully specified; printed as AHKVVPQRQIRHAYNRYGSGKCFRGWAHIFFGPHVIYRGGSG(oct); also: branched on Lys21 side chain (linear writing)) [Akt26-23(Oct)KC]”, the “KD (nM)” value with AKT1 [1] (setting [11]) is recorded as “n.b”.
Consider “AWKVVPQRQIRHAYNRYGSGKCFRGWAHIFFGPHVIYRGGSG [m3-Akt26-23 KC]”, for which, on AKT1 [1] (Table 4, synbodies constructed from mutant peptides on lysine scaffold), the “KD (nM)” value is listed as “n.b”.

B1: Akt26-23(hex)KC (designed binder)
chain 1: AHKVVPQRQIRHAYNRYGSGKC(StBu)
chain 2: FRGWAHIFFGPHVIYRGGSG
modifications: not fully specified (C-terminus); also: linker at chain A 21 to a chain's C-terminus via hex
notes: Branched molecule
With B1, the Kd with AKT1 [4] worked out at 3 nM.

B2: Akt26(Oct)-23KC (designed binder)
chain 1: AHKVVPQRQIRHAYNRYGSG[Oct]KC(StBu)
chain 2: FRGWAHIFFGPHVIYRGGSG
modifications: numbers in words are those of the source; also: bond at chain A 21 to a chain's C-terminus
notes: Branched molecule; They shift if the listing holds a placeholder for the spacer
Take B2: the Kd with AKT1 [4] stood at 6 nM.

B3: Akt26-23KKbiotin (designed binder)
chain 1: AHKVVPQRQIRHAYNRYGSGKK(Biotin)
chain 2: FRGWAHIFFGPHVIYRGGSG
modifications: also: bond at chain A 21 to a chain's C-terminus
notes: I split it into two chains; The name runs over rows r11 and r12; also called synbody 5
B3 gave a Kd with AKT1 [4] of 4 nM.

B4: m1-Akt26-23 KC (designed binder)
chain 1: AHKVVPQRQMRHAYSRYGSGKC
chain 2: FRGWAHIFFGPHVIYRGGSG
modifications: also: bond at chain A 21 to a chain's C-terminus
notes: Mutant peptide on a lysine scaffold
In the test with AKT1 [5], B4 showed a Kd of 15 nM.

B5: m5-Akt26-23 KC (designed binder)
chain 1: AWKVVPQRWIRHAYNRYGSGKC
chain 2: FRGWAHIFFGPHVIYRGGSG
modifications: also: bond at chain A 21 to a chain's C-terminus
notes: Mutant peptide on a lysine scaffold; Branched molecule, which I split into two chains
Consider B5, for which binding in the test with AKT1 [5] was put at a Kd of 8 nM.

B6: m4-Akt26-23 KC (designed binder)
chain 1: AHKVVPQRWIRHAYNRYGSGKC
chain 2: FRGWAHIFFGPHVIYRGGSG
modifications: also: bond at chain A 21 to a chain's C-terminus
notes: as for B5
For B6, the Kd with AKT1 [5] was 5 nM.

B7: m2-Akt26-23 KC (designed binder)
chain 1: AHKVVYQRQIRFAYNRYGSGKC
chain 2: FRGWAHIFFGPHVIYRGGSG
modifications: also: bond at chain A 21 to a chain's C-terminus
notes: as for B5
The molecule B7 had a dissociation constant (Kd) in the test with AKT1 [5] of 5 nM.

B8: m6-Akt26-23 KC (designed binder)
chain 1: AWKVVPQRWIRYAYNRYGSGKC
chain 2: FRGWAHIFFGPHVIYRGGSG
modifications: also: bond at chain A 21 to a chain's C-terminus
notes: as for B5
B8: the Kd in the test with AKT1 [5] is roughly 10 nM.

B9: lead synbody (Akt26 and Akt23 on a lysine linker, second lysine with biotin) (designed binder)
chain 1: AHKVVPQRQIRHAYNRYGSGKK
chain 2: FRGWAHIFFGPHVIYRGGSG
modifications: not fully specified (some residues); also: bond at chain A 21 to a chain's C-terminus
notes: also called the synbody; first generation synbody
In the case of B9, the Kd with AKT1 [6] worked out at 1.49 nM; in the test with AKT1 [8], 4.9 nM. In addition, the binding result with AKT3 [7] and with AKT2 [9] was “binds” in each case. This molecule also came in with a koff with AKT1 [10] of 0.000295 s⁻¹.
